# pKd: −log10 of the molar value.
# Experiments:
# [1] = biological target: Syk tandem (N+C) SH2 domains (UniProt P43405); assay: direct peptide pull-down, Coomassie gel; conditions: reference: unphosphorylated peptide; sites Y211,Y237
# [2] = biological target: SHP-2 tandem (N+C) SH2 domains (UniProt Q06124); assay: direct peptide pull-down, Coomassie gel
# [3] = biological target: SHP-2 N-terminal SH2 domain (UniProt Q06124); assay: direct peptide pull-down, Coomassie gel; conditions: reference: unphosphorylated peptide; sites Y211,Y237
# [4] = biological target: SHP-2 C-terminal SH2 domain (UniProt Q06124); assay: direct peptide pull-down, Coomassie gel; conditions: reference: unphosphorylated peptide; sites Y211,Y237
# [5] = biological target: SHP-1 tandem (N+C) SH2 domains (UniProt P29350); assay: direct peptide pull-down, Coomassie gel
# SHP-2 = SHP-2 (UniProt Q06124); assay: biotin-peptide pull-down from platelet lysate; conditions: reference: unphosphorylated peptide; sites Y211,Y237
# Syk = Syk (UniProt P43405); assay: biotin-peptide pull-down from platelet lysate; conditions: reference: unphosphorylated peptide; sites Y211,Y237
# [6] = biological target: SHP-2 tandem (N+C) SH2 domains (UniProt Q06124); assay: SPR kinetics, 37°C; conditions: reference: unphosphorylated peptide
# [7] = biological target: SHP-1 tandem (N+C) SH2 domains (UniProt P29350); assay: SPR kinetics, 37°C; conditions: reference: unphosphorylated peptide; sites Y211,Y237
# [8] = biological target: SHP-2 tandem (N+C) SH2 domains (UniProt Q06124); assay: SPR, 37°C
# [9] = biological target: SHP-2 C-terminal SH2 domain (UniProt Q06124); assay: SPR, 37°C; conditions: reference: unphosphorylated peptide; sites Y211,Y237
# [10] = biological target: SHP-1 tandem (N+C) SH2 domains (UniProt P29350); assay: SPR, 37°C
# Syk SH2 domains = Syk SH2 domains (UniProt P43405); assay: SPR; conditions: reference: unphosphorylated peptide; sites Y211,Y237
# [11] = biological target: G6B-b dual phosphopeptide (biotinylated 60-mer, amino acids 182 to 241, pY211 and pY237) (human) (UniProt O95866); assay: pull-down; direct pull down assay: peptide on Streptactin beads incubated with equimolar purified SH2 domains (100 pM [sic] each for the tandem SH2 domains), 250 µl PBS, 30 minutes, room temperature; bound and unbound fractions on Coomassie-stained gels
# [12] = biological target: G6B-b pY211 phosphopeptide (biotinylated 60-mer, amino acids 182 to 241, ITIM phosphorylated) (human) (UniProt O95866); assay: SPR; BIAcore 3000, biotinylated peptides (50 RU) on streptavidin-coated CM5 chip, single SH2 domains flowed at 10 µl/min, HBS buffer pH 7.4, 0.15 M NaCl, 37°C; KD from equilibrium binding, single site fitting
# [13] = biological target: G6B-b pY237 phosphopeptide (biotinylated 60-mer, amino acids 182 to 241, ITSM phosphorylated) (human) (UniProt O95866); assay: as above
# [14] = biological target: G6B-b dual phosphopeptide (biotinylated 60-mer, amino acids 182 to 241, pY211 and pY237) (human) (UniProt O95866); assay: as above
# [15] = biological target: G6B-b pY211 phosphopeptide (biotinylated 60-mer, amino acids 182 to 241, ITIM phosphorylated) (human) (UniProt O95866); assay: pull-down; direct pull down assay: peptide on Streptactin beads incubated with equimolar purified SH2 domains (100 pM [sic] each for the tandem SH2 domains), 250 µl PBS, 30 minutes, room temperature; bound and unbound fractions on Coomassie-stained gels
# [16] = biological target: G6B-b pY237 phosphopeptide (biotinylated 60-mer, amino acids 182 to 241, ITSM phosphorylated) (human) (UniProt O95866); assay: as above
# [17] = biological target: G6B-b dual phosphopeptide (biotinylated 60-mer, amino acids 182 to 241, pY211 and pY237) (human) (UniProt O95866); assay: SPR; purified SH2 domains of Syk, PLCγ2, Src and PI3K p85 over immobilised G6B-b peptides; how the KD was obtained is not told
# [18] = reference: pY211 peptide, sites Y237
# [19] = reference: pY237 peptide, sites Y211
# [20] = reference: unphosphorylated peptide, sites Y211,Y237
substance,measurement,setting,value
G6B-b 182-241 (from UniProt O95866) dual pY211/pY237 peptide,other: share of SH2 protein bound,[1],stronger
same,other: share of SH2 protein bound,[2]; [18],stronger; reference ∼50
same,other: share of SH2 protein bound,[2]; [19],stronger; reference ∼25
same,other: share of SH2 protein bound,[2]; [20],stronger
same,binding against the reference,[3],stronger
same,binding against the reference,[4],stronger
same,other: share of SH2 protein bound,[5]; [18],gained; reference little or no association
same,other: share of SH2 protein bound,[5]; [19],gained; reference little or no association
same,other: share of SH2 protein bound,[5]; [20],stronger
same,binding against the reference,SHP-2,gained
same,binding against the reference,Syk,stronger
same,KD,"[6]; sites Y211,Y237",0.48 nM
same,KD,[7],35.3 nM
same,binding against the reference,[8]; [18],stronger
same,binding against the reference,[8]; [19],stronger
same,binding against the reference,[9],stronger
same,binding against the reference,[10]; [18],stronger
same,binding against the reference,[10]; [19],stronger
same,KD,Syk SH2 domains,stronger
G6B-b 182-241 (from UniProt O95866) pY211 peptide,other: share of SH2 protein bound,"[2]; reference: unphosphorylated peptide, sites Y211",stronger
same,binding against the reference,[6]; sites Y211,stronger
G6B-b 182-241 (from UniProt O95866) pY237 peptide,other: share of SH2 protein bound,"[2]; reference: unphosphorylated peptide, sites Y237",stronger
same,binding against the reference,[6]; sites Y237,stronger
PLCγ2 N+C tandem SH2 domains (domain or fragment),percent bound,[11],40%
SHP-1 (N+C)SH2 domains (maltose binding protein-tag) (domain or fragment),percent bound,[11],30%
SHP-2 (N)SH2 (His-tag) (domain or fragment),pKd,[12],6.96
same,pKd,[13],5.00
same,pKd,[14],6.89
SHP-2 (N+C)SH2 domains (His-tag) (domain or fragment),percent bound,[15],50%
same,percent bound,[16],25%
same,percent bound,[11],70%
Syk tandem (N+C) SH2 domains (domain or fragment),percent bound,[11],20%
same,pKd,[17],4.60

# Reference: publication PMC3501490, “An Investigation of Hierachical Protein Recruitment to the Inhibitory Platelet Receptor, G6B-b” (PLoS ONE, 2012)
